# Experimental data from patent publication US20260232830A1 (JIANGSU HENGRUI PHARMACEUTICALS, published 2026).
# How the values were obtained:
# [1] = molecular target: T1, MUC1-C-L-6×His (His-tagged human MUC1-C protein extracellular domain) (human, UniProt P15941 961-1152); test: ELISA, coated antigen, hybridoma supernatant
# T1 construct: template human MUC1 UniProt P15941; expressed in 293 cells; also called hMUC1-C-L-his; MUC1-C-L-His
# [2] = molecular target: T2, cyno MUC1-C on stably transfected CHOK1 cells (cyno); test: FACS, CHOK1-cyno-MUC1-C
# T2 construct: domain: MUC1-C; also called CHOK1-cyno-MUC1-C cells; Monkey MUC1-CT
# [3] = molecular target: T1, MUC1-C-L-6×His (His-tagged human MUC1-C …); test: SPR Biacore 8K, antibody on Protein A chip, 1:1 fit
# [4] = molecular target: T3, Cynomolgus MUC1 his (Cat. #MU1-C52H5, Acro) (cynomolgus); test: SPR Biacore T200, antibody on Protein A chip, 1:1 fit
# T3 construct: bought reagent; also called Cyno MUC1-His
# [5] = molecular target: T4, human EGFR as expressed on tumour cell lines (HCC827, T47D, HPAC) (human, UniProt P00533 25-1210); test: FACS, HPAC
# T4 construct: whole, on cells; the cell line is named under assay; also called HCC827 cells; T47D cells
# [6] = molecular target: T4, human EGFR as expressed on tumour cell …; test: FACS, HCC827
# human EGFR-His antigen [7] = molecular target: T5, human EGFR-His antigen (human, UniProt P00533 25-645); test: SPR Biacore 8K, antibody on Protein A chip, 1:1 fit
# T5 construct: also called hEGFR-His
# human EGFR-His antigen [8] = molecular target: T5, human EGFR-His antigen; test: SPR Biacore T200, antibody on Protein A chip, 1:1 fit
# [9] = molecular target: T6, cynomolgus EGFR-his (Cat. #90285-C08H, Sino Biological) (cynomolgus, UniProt A0A2K5WK39 25-645); test: as above
# T6 construct: bought reagent; also called Cyno EGFR-His
# human EGFR-His antigen [10] = molecular target: T5, human EGFR-His antigen; test: SPR Biacore 8K, antibody on Protein A chip, 1:1 fit; remark: listed apart in the source
# human EGFR-His antigen [11] = molecular target: T5, human EGFR-His antigen; test: SPR Biacore 8K, antibody on Protein A chip; Ag1 blank, Ag2 hEGFR-His
# human EGFR-His antigen [12] = molecular target: T5, human EGFR-His antigen; test: SPR Biacore 8K, antibody on Protein A chip; Ag1 hMUC1-C-His bound first, Ag2 hEGFR-His
binder,measurement,setting,value
"M4 (antibody of hybridoma 17F3) (antibody, V domains shown, murine antibody tested as hybridoma supernatant; also called hybridoma supernatant 17F3) VH: QVQLQQSGAELARPGASVKLSCKASGYSFTTYGVPWVKQRTGQGLEWIGDIYPRSGNTYYNEKFKGKATLTADKSSDTVFMELRSLSSEDSAVYFCAREDYDNYPYALDYWGQGTSVTVSS VL: EIVLTQSPAIIAASPGEKVTITCSASSSVFNMNWYQQKPGSSPKIWIYDISKLASGVPGRFSGSGSGTSFSLTINSMEAEDVGTYYCQQRSFYPPTFGGGTKVEIK",OD450 nm,[1],1.9
"F4-1 (antibody of hybridoma 3H6) (antibody, V domains shown, murine antibody tested as hybridoma supernatant; also called hybridoma supernatant 3H6) VH: QIQLQQSGPELVKPGASVKISCKASGYTFTDNYINWVKQRPGQGLEYIGWIYPGSGNNKFNEKFKGKATLTVDTSSRTAFMQLSSLTFEDSAVYFCARDYPFPSYHYGMDYWGQGTSVTVSS VL: QILLTQSPAIMSASPGERVTITCSASSSVSYIHWFQQKPGTSPKLWIYSTSNLASGVPPRFSGSGSGTSFSLTVSRMEAEDAATYYCQQRSSYPPTFGGGTKLEIK",OD450 nm,[1],2.33
"ChiM6 (antibody, human IgG1, kappa, V domains shown, murine variable regions on human IgG1 constant regions; also called chimeric antibody of M6) VH: QVQLQQSGAELMKPGASVKLSCKATGYRFIPYWIEWIKERPGHGLEWIGEILPGTGRTNYNEKFKGKATFTADTSSNTAYMQLSSLTTEDSAIYYCARYGDDTSGGYYAVDYWGQGTSVTVSS VL: DIVMTQSSASLAMSLGQRATISCRASESVNILGTNLIHWYQQKPGQPPKLLIYHASNLETGVPARFSGSGSRTDFTLTIDPVEEDDVAIYYCLQSRKIPWTFGGGTKLEIKR",Emax,[2],70900
"F4-18 (antibody of hybridoma 36G9) (antibody, V domains shown, murine antibody tested as hybridoma supernatant; also called hybridoma supernatant 36G9) VH: EVQLQQSGAELVRPGSSVKMSCKTSGYTFTSYGINWVKQRPGQGLEWIGYIYLGSDYTEYNEKFKGKATLTSDTTSSTAYMQLSSLTSEDSAIYFCARSAGSLFAYWGQGTLVTVSA VL: DIQLTQSPSSLSASLGERVSLTCRASQDIGITLNWLQQEPDGTIKRLIYATSSLDSGVPKRFSGSRSGSDYSLTISSLESEDFVDYYCLQYASSPYTFGGGTKLEIK",OD450 nm,[1],2.05
"M4-H1L1 (antibody, human IgG1, kappa, humanized, human IgG1) heavy: not shown light: DIQMTQSPSSLSASVGDRVTITCSASSSVFNMNWYQQKPGKSPKLWIYDISKLASGVPSRFSGSGSGTDFTLTISSLQPEDFATYYCQQRSFYPPTFGGGTKVEIKRTVAAPSVFIFPPSDEQLKSGTASVVCLLNNFYPREAKVQWKVDNALQSGNSQESVTEQDSKDSTYSLSSTLTLSKADYEKHKVYACEVTHQGLSSPVTKSFNRGEC",Kd,[3],5.27 nM
same,Kd,[4],18.9 nM
"ZalH4 (antibody, human IgG1, kappa, V domains shown, anti-EGFR zalutumumab variant, human IgG1; also called EGFR monoclonal antibody ZalH4) VH: QVQLVESGGGVVQPGRSLRLSCAASGFTFSTYGMHWVRQAPGKGLEWVAVIWDDGSYKYYGDSVKGRFTISRDNSKNTLYLQMNSLRAEDTAVYYCARDGVTMVRGVMKDYFDYWGQGTLVTVSS VL: DIQLTQSPSSLSASVGDRVTITCRASQDISSALVWYQQKPGKAPKLLIYDASSLESGVPSRFSGSESGTDFTLTISSLQPEDFATYYCQQFNSYPLTFGGGTKVEIKR",Emax,[5],13000
same,Emax,[6],37600
same,Kd,human EGFR-His antigen [7],44.3 nM
same,Kd,human EGFR-His antigen [8],33 nM
same,Kd,[9],477 nM
"M4H1L1-ZalH4 (bispecific antibody, human IgG1, kappa, also called anti-EGFR-MUC1 bispecific antibody) heavy: not shown light: DIQMTQSPSSLSASVGDRVTITCSASSSVFNMNWYQQKPGKSPKLWIYDISKLASGVPSRFSGSGSGTDFTLTISSLQPEDFATYYCQQRSFYPPTFGGGTKVEIKRTVAAPSVFIFPPSDEQLKSGTASVVCLLNNFYPREAKVQWKVDNALQSGNSQESVTEQDSKDSTYSLSSTLTLSKADYEKHKVYACEVTHQGLSSPVTKSFNRGEC chain 1: not shown chain 2: DIQLTQSPSSLSASVGDRVTITCRASQDISSALVWYQQKPGKAPKLLIYDASSLESGVPSRFSGSESGTDFTLTISSLQPEDFATYYCQQFNSYPLTFGGGTKVEIKGGGGSSGAPRFLTRPKASVVSVGKDATLSCQIVGNPFPQVSWEKDKQPVTAGVRFRLAQDGDLYRLKILDLQLSDSGQYVCRARNAHGEAFACLGLQVDAEA",Kd,human EGFR-His antigen [10],10.4 nM
same,koff,human EGFR-His antigen [10],0.00144 s⁻¹
same,kon,human EGFR-His antigen [10],139000 M⁻¹ s⁻¹
same,Kd,human EGFR-His antigen [8],14.8 nM
same,Kd,[9],243 nM
same,Kd,[4],17.8 nM
same,Kd,human EGFR-His antigen [11],18 nM
same,Kd,human EGFR-His antigen [12],19.6 nM
"ZalH4-9-A (antibody, human IgG1, kappa, V domains shown, compound 9-A coupled to reduced cysteines of the antibody (chains and sites not stated), average DAR n=5.94, also called EGFR monoclonal antibody ADC) VH: QVQLVESGGGVVQPGRSLRLSCAASGFTFSTYGMHWVRQAPGKGLEWVAVIWDDGSYKYYGDSVKGRFTISRDNSKNTLYLQMNSLRAEDTAVYYCARDGVTMVRGVMKDYFDYWGQGTLVTVSS VL: DIQLTQSPSSLSASVGDRVTITCRASQDISSALVWYQQKPGKAPKLLIYDASSLESGVPSRFSGSESGTDFTLTISSLQPEDFATYYCQQFNSYPLTFGGGTKVEIKR",Emax,[5],14400
same,Emax,[6],31700
